{
  "source": "paper PMC8508685",
  "about": "“The Ephb2 Receptor Uses Homotypic, Head-to-Tail Interactions within Its Ectodomain as an Autoinhibitory Control Mechanism” (International Journal of Molecular Sciences, 2021)",
  "molecules": {"B1": {"name": "mouse EphB2 extracellular domain (ECD) (residues 19-543) (domain or fragment, UniProt P54763 19-543, looked up)", "chain": "VEETLMDSTTATAELGWMVHPPSGWEEVSGYDENMNTIRTYQVCNVFESSQNNWLRTKFIRRRGAHRIHVEMKFSVRDCSSIPSVPGSCKETFNLYYYEADFDLATKTFPNWMENPWVKVDTIAADESFSQVDLGGRVMKINTEVRSFGPVSRNGFYLAFQDYGGCMSLIAVRVFYRKCPRIIQNGAIFQETLSGAESTSLVAARGSCIANAEEVDVPIKLYCNGDGEWLVPIGRCMCKAGFEAVENGTVCRGCPSGTFKANQGDEACTHCPINSRTTSEGATNCVCRNGYYRADLDPLDMPCTTIPSAPQAVISSVNETSLMLEWTPPRDSGGREDLVYNIICKSCGSGRGACTRCGDNVQYAPRQLGLTEPRIYISDLLAHTQYTFEIQAVNGVTDQSPFSPQFASVNITTNQAAPSAVSIMHQVSRTVDSITLSWSQPDQPNGVILDYELQYYEKELSEYNATAIKSPTNTVTVQGLKAGAIYVFQVRARTVAGYGRYSGKMYFQTMTEAEYQTSIKEKLPL", "modifications": "glycosylated at N265, N336, N428 and N482", "notes": "EphB2 (ephrin type-B receptor 2), mouse, extracellular domain (LBD, CRD, FN1, FN2), residues 19-543; also called EphB2-ECD; EphB2 ECD; not shown: Fc (human), C-terminal, cleaved"}},
  "key": {"[1]": {"molecular_target": "human EphB2 full-length Q472A/Y473A/E480A/Y481A (human) (UniProt P29323)"}, "[2]": {"molecular_target": "human EphB2 full-length N482Q (human) (UniProt P29323)"}, "[3]": {"molecular_target": "human EphB2 full-length Y481E (human) (UniProt P29323)"}, "[4]": {"molecular_target": "the molecule itself", "experiment": "crystal structure; unliganded EphB2-ECD at 10 mg/mL in HBS, hanging drop at room temperature, 1.1 M Na Succinate, 0.1 M Na Acetate pH 4.8, 5% MPD, 3% 1,6-Hexanediol; 3.1 Å; head-to-tail contact between neighbouring molecules in the crystal"}},
  "data": [
    {"molecule": "human EphB2 full-length Q472A/Y473A/E480A/Y481A (from UniProt P29323 19-1055) (receptor)", "values": [
      {"measurement": "EphB2 phosphorylation in HEK293 cells after ephrin stimulation (anti-phosphotyrosine IP, anti-EphB2 blot), band intensity compared with the wild-type receptor (% higher than wild type)", "setting": "[1]", "value": 46}
    ]},
    {"molecule": "human EphB2 full-length N482Q (from UniProt P29323 19-1055) (receptor)", "values": [
      {"measurement": "EphB2 phosphorylation in HEK293 cells after ephrin stimulation (anti-phosphotyrosine IP, anti-EphB2 blot), band intensity compared with the wild-type receptor (% higher than wild type)", "setting": "[2]", "value": 40}
    ]},
    {"molecule": "human EphB2 full-length Y481E (from UniProt P29323 19-1055) (receptor)", "values": [
      {"measurement": "EphB2 kinase domain phosphorylation in HEK293 cells (anti-phosphotyrosine IP, anti-EphB2 blot), compared with the wild-type receptor (% lower than wild type)", "setting": "[3]", "value": 56}
    ]},
    {"molecule": "B1", "values": [
      {"measurement": "binding result", "setting": "[4]", "value": "binds"}
    ]}
  ]
}
